Biological target: the molecule itself
Experiment: crystal structure; Vps75 (1-225) crystallised from the VAH preparation; sitting drop, 0.1 M sodium cacodylate pH 6.5, 25% PEG 4000; four monomers in the asymmetric unit, two tetrameric assemblies in the lattice

B1: Vps75 (1–225) (domain or fragment, UniProt P53853 1-225, looked up)
chain: MMSDQENENEHAKAFLGLAKCEEEVDAIEREVELYRLNKMKPVYEKRDAYIDEIAEFWKIVLSQHVSFANYIRASDFKYIDTIDKIKVEWLALESEMYDTRDFSITFHFHGIEGDFKEQQVTKVFQIKKGKDDQEDGILTSEPVPIEWPQSYDSINPDLIKDKRSPEGKKKYRQGMKTIFGWFRWTGLKPGKEFPHGDSLASLFSEEIYPFCVKYYAEAQRDLED
notes: Vps75, yeast, residues 1-225 (C-terminally truncated), as crystallised; Crystallised from the Vps75-Asf1-H3-H4 preparation; only Vps75 is in the crystal; also called Vps75 tetramer; Vps75 (1-225) dimer
stoichiometry N: 4

From article PMC5291247, “The histone chaperone Vps75 forms multiple oligomeric assemblies capable of mediating exchange between histone H3–H4 tetramers and Asf1–H3–H4 complexes” (Nucleic Acids Research, 2016)
